Key:
Experiment in all cases: cell-based or functional assay
[1] = target: T1, G glycoprotein of rabies virus street isolate NC SK (rabies virus, isolate NC SK (Skunk, …))
[2] = target: T2, G glycoprotein of rabies virus street isolate Myotis (rabies virus, isolate Myotis (Myotis …))
[3] = target: T3, G glycoprotein of rabies virus street isolate AK fox (rabies virus, isolate AK fox (Fox, …))
[4] = target: T4, G glycoprotein of rabies virus street isolate RAC (rabies virus, isolate RAC (Raccoon, …))
[5] = target: T5, G glycoprotein of rabies virus street isolate Sonora Dog (rabies virus, isolate Sonora Dog (Dog, …))
[6] = target: T6, G glycoprotein of rabies virus street isolate PR Mong (rabies virus, isolate PR Mong …)
[7] = target: T7, G glycoprotein of rabies virus street isolate C1434 (rabies virus, isolate C1434 …)
[8] = target: T8, G glycoprotein of rabies virus street isolate CO Bat EF6938 (rabies virus, isolate CO Bat EF6938 …)
[9] = target: T9, G glycoprotein of rabies virus street isolate WA Bat (rabies virus, isolate WA Bat …)
[10] = target: T10, G glycoprotein of rabies virus street isolate Bat EF (rabies virus, isolate Bat EF (Eptesicus …))
[11] = target: T11, G glycoprotein of rabies virus street isolate TX SK 4380 (rabies virus, isolate TX SK 4380 …)
[12] = target: G glycoprotein of rabies virus street isolate FLBat 769 (rabies virus, isolate FLBat 769 …)
[13] = target: G glycoprotein of rabies virus street isolate AZ Bat LC (rabies virus, isolate AZ Bat LC …)
[14] = target: T1, G glycoprotein of rabies virus street …; remark: listed apart in the source
[15] = target: G glycoprotein of rabies virus street isolate TX Fox (rabies virus, isolate TX Fox (Fox …))
[16] = target: T2, G glycoprotein of rabies virus street …; remark: listed apart in the source
[17] = target: G glycoprotein of rabies virus street isolate VA399 (rabies virus, isolate VA399 (Lasiurus …))
[18] = target: G glycoprotein of rabies virus street isolate TN33 (rabies virus, isolate TN33 (Lasiurus …))
[19] = target: G glycoprotein of rabies virus street isolate TN269 (rabies virus, isolate TN269 (Lasiurus …))
[20] = target: G glycoprotein of rabies virus isolate Texas coyote 323R (rabies virus, isolate Texas coyote 323R)
[21] = target: G glycoprotein of rabies virus street isolate CABat (rabies virus, isolate CABat (Myotis …))
[22] = target: T3, G glycoprotein of rabies virus street …; remark: listed apart in the source
[23] = target: T4, G glycoprotein of rabies virus street …; remark: listed apart in the source
[24] = target: G glycoprotein of rabies virus street isolate CASK (rabies virus, isolate CASK (Skunk, U.S. …))
[25] = target: T5, G glycoprotein of rabies virus street …; remark: listed apart in the source
[26] = target: T6, G glycoprotein of rabies virus street …; remark: listed apart in the source
[27] = target: T7, G glycoprotein of rabies virus street …; remark: listed apart in the source
[28] = target: G glycoprotein of rabies virus street isolate 1625 Bat (rabies virus, isolate 1625 Bat …)
[29] = target: G glycoprotein of rabies virus street isolate VA1340 (rabies virus, isolate VA1340 (Lasiurus …))
[30] = target: G glycoprotein of rabies virus street isolate TN132 (rabies virus, isolate TN132 (Lasiurus …))
[31] = target: T8, G glycoprotein of rabies virus street …; remark: listed apart in the source
[32] = target: G glycoprotein of rabies virus street isolate AZ fox 2400 (rabies virus, isolate AZ fox 2400 (Fox …))
[33] = target: T9, G glycoprotein of rabies virus street …; remark: listed apart in the source
[34] = target: G glycoprotein of rabies virus street isolate TN410 (rabies virus, isolate TN410 (Lasiurus …))
[35] = target: T10, G glycoprotein of rabies virus street …; remark: listed apart in the source
[36] = target: T11, G glycoprotein of rabies virus street …; remark: listed apart in the source
[37] = target: G glycoprotein of rabies virus street isolate Gray fox (Test B) (rabies virus, isolate Gray fox (Fox …))
[38] = target: G glycoprotein of rabies virus street isolate Tadarida (Test B) (rabies virus, isolate Tadarida sp. …)
[39] = target: G glycoprotein of rabies virus street isolate Lasiurus cinereus (Arkansas) (Test B) (rabies virus, isolate Lasiurus cinereus …)
[40] = target: G glycoprotein of rabies virus street isolate Raccoon (Florida) (rabies virus, isolate Raccoon (Florida))
[41] = target: G glycoprotein of rabies virus street isolate SW E fuscus (Test B) (rabies virus, isolate SW E fuscus …)
[42] = target: G glycoprotein of rabies virus street isolate Skunk south-central (Test B) (rabies virus, isolate Skunk …)
[43] = target: G glycoprotein of rabies virus street isolate Eptesicus fuscus (Nebraska) (Test B) (rabies virus, isolate Eptesicus fuscus …)
[44] = target: G glycoprotein of rabies virus street isolate Skunk (north-central) (Test B) (rabies virus, isolate Skunk …)
[45] = target: G glycoprotein of rabies virus street isolate Eastern pipistrelle (Test B) (rabies virus, isolate Eastern …)

B1: anti-rabies virus human monoclonal antibody 2B10 (antibody, V domains shown)
VH: EVQLVQSGGGLVHPGGSLRLSCAGSGFTFSYFAMHWVRQAPGKGLEWVSTIGTGGGTYYADSVKGRFTISRDNAKNSLYLQMNSLRAEDMAVYYCARDNALRSFDWLFYSFDYWGQGTLVTVSS
VL: EIVLTQSPGTLSLSPGERATLSCRASQSISSSYLAWYQQKPGQAPRLLIYGASSRATGIPDRFSGSGSGTDFTLTISRLEPEDFAVYYCQRYGSSYTFGQGTKLEIK
EC50 neutralization by RFFIT [1]: 0.004 µg/mL | EC50 neutralization by RFFIT [2]: 0.008 µg/mL | EC50 neutralization by RFFIT [3]: 0.004 µg/mL | EC50 neutralization by RFFIT [4]: 0.03 µg/mL | EC50 neutralization by RFFIT [5]: 0.006 µg/mL | EC50 neutralization by RFFIT [6]: 0.006 µg/mL | EC50 neutralization by RFFIT [7]: 0.008 µg/mL | EC50 neutralization by RFFIT [8]: 0.01 µg/mL | EC50 neutralization by RFFIT [9]: 0.009 µg/mL | EC50 neutralization by RFFIT [10]: 0.015 µg/mL | EC50 neutralization by RFFIT [11]: 0.005 µg/mL | EC50 neutralization by RFFIT (Test A) [12]: > 2400 µg/mL | EC50 neutralization by RFFIT (Test A) [13]: 422 µg/mL | EC50 neutralization by RFFIT (Test A) [14]: 0.004 µg/mL | EC50 neutralization by RFFIT (Test A) [15]: 0.02 µg/mL | EC50 neutralization by RFFIT (Test A) [16]: 0.008 µg/mL | EC50 neutralization by RFFIT (Test A) [17]: 864 µg/mL | EC50 neutralization by RFFIT (Test A) [18]: 1620 µg/mL | EC50 neutralization by RFFIT (Test A) [19]: > 2400 µg/mL | EC50 neutralization by RFFIT (Test A) [20]: 1.57 µg/mL | EC50 neutralization by RFFIT (Test A) [21]: 0.004 µg/mL | EC50 neutralization by RFFIT (Test A) [22]: 0.004 µg/mL | EC50 neutralization by RFFIT (Test A) [23]: 0.03 µg/mL | EC50 neutralization by RFFIT (Test A) [24]: 0.48 µg/mL | EC50 neutralization by RFFIT (Test A) [25]: 0.006 µg/mL | EC50 neutralization by RFFIT (Test A) [26]: 0.006 µg/mL | EC50 neutralization by RFFIT (Test A) [27]: 0.008 µg/mL | EC50 neutralization by RFFIT (Test A) [28]: 83 µg/mL | EC50 neutralization by RFFIT (Test A) [29]: > 2400 µg/mL | EC50 neutralization by RFFIT (Test A) [30]: > 2400 µg/mL | EC50 neutralization by RFFIT (Test A) [31]: 0.01 µg/mL | EC50 neutralization by RFFIT (Test A) [32]: 0.043 µg/mL | EC50 neutralization by RFFIT (Test A) [33]: 0.009 µg/mL | EC50 neutralization by RFFIT (Test A) [34]: 222 µg/mL | EC50 neutralization by RFFIT (Test A) [35]: 0.015 µg/mL | EC50 neutralization by RFFIT (Test A) [36]: 0.005 µg/mL | EC50 neutralization by RFFIT (Test B) [37]: < 0.0002 µg/mL | EC50 neutralization by RFFIT (Test B) [38]: 0.011 µg/mL | EC50 neutralization by RFFIT (Test B) [39]: 117 µg/mL | EC50 neutralization by RFFIT (Test B) [40]: 0.005 µg/mL | EC50 neutralization by RFFIT (Test B) [41]: 0.005 µg/mL | EC50 neutralization by RFFIT (Test B) [42]: 0.002 µg/mL | EC50 neutralization by RFFIT (Test B) [43]: 0.014 µg/mL | EC50 neutralization by RFFIT (Test B) [44]: 0.005 µg/mL | EC50 neutralization by RFFIT (Test B) [45]: 0.033 µg/mL

B2: anti-rabies virus human monoclonal antibody 17C7 (antibody, V domains shown)
VH: QVQLVESGGGVVQPGRSLRLSCAASGFTFSTYAMHWVRQAPGKGLEWVAVVSYDGRTKDYADSVKGRFTISRDNSKNTLYLQMNSLRTEDTAVYFCARERFSGAYFDYWGQGTLVTVSS
VL: EIVLTQSPATLSLSPGERATLSCRASQSVSSYLAWYQQKPGQAPRLLIYDASNRATGIPARFSGSGSGTDFTLTISSLEPEDFAVYSCQQRNNWPPTFGGGTKVEIK
EC50 neutralization by RFFIT [1]: 0.8 µg/mL | EC50 neutralization by RFFIT [2]: 0.004 µg/mL | EC50 neutralization by RFFIT [3]: 0.005 µg/mL | EC50 neutralization by RFFIT [4]: 0.027 µg/mL | EC50 neutralization by RFFIT [5]: 0.006 µg/mL | EC50 neutralization by RFFIT [6]: 0.007 µg/mL | EC50 neutralization by RFFIT [7]: 0.154 µg/mL | EC50 neutralization by RFFIT [8]: 0.182 µg/mL | EC50 neutralization by RFFIT [9]: 0.87 µg/mL | EC50 neutralization by RFFIT [10]: 0.512 µg/mL | EC50 neutralization by RFFIT [11]: 0.006 µg/mL | EC50 neutralization by RFFIT (Test A) [12]: 80.2 µg/mL | EC50 neutralization by RFFIT (Test A) [13]: 10 µg/mL | EC50 neutralization by RFFIT (Test A) [14]: 0.8 µg/mL | EC50 neutralization by RFFIT (Test A) [15]: 0.023 µg/mL | EC50 neutralization by RFFIT (Test A) [16]: 0.004 µg/mL | EC50 neutralization by RFFIT (Test A) [17]: 21.9 µg/mL | EC50 neutralization by RFFIT (Test A) [18]: 9.11 µg/mL | EC50 neutralization by RFFIT (Test A) [19]: 400 µg/mL | EC50 neutralization by RFFIT (Test A) [20]: 0.01 µg/mL | EC50 neutralization by RFFIT (Test A) [21]: 0.006 µg/mL | EC50 neutralization by RFFIT (Test A) [22]: 0.005 µg/mL | EC50 neutralization by RFFIT (Test A) [23]: 0.027 µg/mL | EC50 neutralization by RFFIT (Test A) [24]: 0.006 µg/mL | EC50 neutralization by RFFIT (Test A) [25]: 0.006 µg/mL | EC50 neutralization by RFFIT (Test A) [26]: 0.007 µg/mL | EC50 neutralization by RFFIT (Test A) [27]: 0.154 µg/mL | EC50 neutralization by RFFIT (Test A) [28]: 80 µg/mL | EC50 neutralization by RFFIT (Test A) [29]: 199 µg/mL | EC50 neutralization by RFFIT (Test A) [30]: 414 µg/mL | EC50 neutralization by RFFIT (Test A) [31]: 0.182 µg/mL | EC50 neutralization by RFFIT (Test A) [32]: 0.211 µg/mL | EC50 neutralization by RFFIT (Test A) [33]: 0.87 µg/mL | EC50 neutralization by RFFIT (Test A) [34]: 8 µg/mL | EC50 neutralization by RFFIT (Test A) [35]: 0.512 µg/mL | EC50 neutralization by RFFIT (Test A) [36]: 0.006 µg/mL | EC50 neutralization by RFFIT (Test B) [37]: 0.002 µg/mL | EC50 neutralization by RFFIT (Test B) [38]: 1.05 µg/mL | EC50 neutralization by RFFIT (Test B) [39]: 10.4 µg/mL | EC50 neutralization by RFFIT (Test B) [40]: 1000 µg/mL | EC50 neutralization by RFFIT (Test B) [41]: 675 µg/mL | EC50 neutralization by RFFIT (Test B) [42]: 0.0004 µg/mL | EC50 neutralization by RFFIT (Test B) [43]: 0.002 µg/mL | EC50 neutralization by RFFIT (Test B) [44]: 7.36 µg/mL | EC50 neutralization by RFFIT (Test B) [45]: 143 µg/mL

From US20190002534A1 (UNIVERSITY OF MASSACHUSETTS, published 2019)
